According to US20240124563A1:
Each block holds one binder with its values, some of them ahead of it.

How the values were obtained:
[1] = molecular target: monkey MSLN full-length protein on HEK293T cells (monkey); assay: FACS, HEK293T-monkey-MSLN cells, antibody 20 nM
[2] = molecular target: monkey MSLN full-length protein on HEK293T cells (monkey); assay: FACS, HEK293T-monkey-MSLN cells, antibody 4 nM
[3] = molecular target: monkey MSLN full-length protein on HEK293T cells (monkey); assay: FACS, HEK293T-monkey-MSLN cells, antibody 0.16 nM
[4] = molecular target: monkey MSLN full-length protein on HEK293T cells (monkey); assay: FACS, HEK293T-monkey-MSLN cells, antibody 0.8 nM
[5] = molecular target: monkey MSLN full-length protein on HEK293T cells (monkey); assay: FACS, HEK293T-monkey-MSLN cells, antibody 0.00128 nM
[6] = molecular target: monkey MSLN full-length protein on HEK293T cells (monkey); assay: FACS, HEK293T-monkey-MSLN cells, antibody 0.032 nM
[7] = molecular target: monkey MSLN full-length protein on HEK293T cells (monkey); assay: FACS, HEK293T-monkey-MSLN cells, antibody 100 nM
[8] = molecular target: monkey MSLN full-length protein on HEK293T cells (monkey); assay: FACS, HEK293T-monkey-MSLN cells, antibody 0.0064 nM
[9] = molecular target: human MSLN-R3 protein on HEK293T cells (human) (UniProt Q13421); assay: FACS, HEK293T-hMSLN R3 cells
Chain of human MSLN-R3 protein on HEK293T cells (human) (Q13421 495-614, form in doubt): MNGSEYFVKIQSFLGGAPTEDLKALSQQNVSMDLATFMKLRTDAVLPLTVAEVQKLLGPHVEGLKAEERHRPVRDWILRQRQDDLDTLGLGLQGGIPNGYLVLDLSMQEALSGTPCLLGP

[10] = molecular target: monkey MSLN full-length protein on HEK293T cells (monkey); assay: FACS, HEK293T-monkey MSLN cells

- FACS signal (MFI) [1]: 100
- FACS signal (MFI) [2]: 90
- FACS signal (MFI) [3]: 86
- FACS signal (MFI) [4]: 88
- FACS signal (MFI) [5]: 85
- FACS signal (MFI) [6]: 85
- FACS signal (MFI) [7]: 126
- FACS signal (MFI) [8]: 85
B1: Tab020 (YP223, rabbitIgG1) (antibody, V domains shown)
VH: QEQLEESGGDLVQPEGSLTLTCKASGLDFSSSYWICWVRQAPGKGLEWIGCRHTFTANTWSASWVNGRFTISRSTSLGTVDLKMTSLTAADTATYFCARDESNNDGWDFKLWGPGTLVTVSS
VL: AYDMTQTPASVSAAVGGTVTIKCQASQSISNYLAWYQQKPGQPPKLLIYQASTLAPGVSSRFKGSGSGTEFTLTISGVECADAATYYCQQGYTSSNVENVFGGGTGVVVGD

- FACS signal (MFI) [1]: 3650
- FACS signal (MFI) [2]: 3140
- FACS signal (MFI) [3]: 288
- FACS signal (MFI) [4]: 918
- FACS signal (MFI) [5]: 119
- FACS signal (MFI) [6]: 131
- FACS signal (MFI) [7]: 3930
- FACS signal (MFI) [8]: 96
B2: Tab107 (YP3, hIgG1) (antibody, V domains shown)
VH: QEQLVESGGGLVQPGASLTLTCTASGIDFSRYYMCWVRQAPGKGLEGIACIYIGGSGSTYYASWAKGRFTISKASSTTVTLQMTSLTAADTATYFCARGTNLNYIFRLWGPGTLVTVSS
VL: DVVMTQTPSPVSAAVGGTVTIKCQASQSINNGLAWYQQKPGQPPRLLIYSASNLESGVPSRFKGSGSGTEFTLTISDLECDDAATYYCQCIWDGNSYVNAFGGGTEVVVRT

- Mean Fluorescence Intensity of Cells [9]: 1690
- EC50 [10]: 1.15 nM
- Max MFI [10]: 8640
- FACS signal (MFI) [1]: 2660
- FACS signal (MFI) [2]: 2440
- FACS signal (MFI) [3]: 313
- FACS signal (MFI) [4]: 860
- FACS signal (MFI) [5]: 90
- FACS signal (MFI) [6]: 142
- FACS signal (MFI) [7]: 3290
- FACS signal (MFI) [8]: 100
B3: Tab106 (YP218, hIgG1) (antibody, V domains shown)
VH: QQQLEESGGGLVKPEGSLTLTCKASGFDLGFYFYACWVRQAPGKGLEWIACIYTAGSGSTYYASWAKGRFTISKASSTTVTLQMTSLAAADTATYFCARSTANTRSTYYLNLWGPGTLVTVSS
VL: DVVMTQTPASVSEPVGGTVTIKCQASQRISSYLSWYQQKPGQRPKLLIFGASTLASGVPSRFKGSGSGTEYTLTISDLECADAATYYCQSYAYFDSNNWHAFGGGTEVVVRT
